Experimental findings from patent US4990453A, “Modified pseudomonas putida creatine amidinohydrolase” (Boehringer Mannheim GmbH, priority 1987, dated 1991) are described below.

The Km is the concentration of substrate that gives half-maximal velocity.

Substrate in data set [1]: CN(CC(=O)O)C(=N)N
The data set can be described thus: purified protein, by the assay type. The following applies: other: 37° C., 0.1 mole/liter Tris-HCl (pH 8.0), optimum test conditions, wild type enzyme.

Substrate in data set [2]: CN(CC(=O)O)C(=N)N
The data set can be described thus: purified protein, by the assay type. It is filed as biochemical, Pseudomonas putida. The settings on record: other: 37° C., 0.1 mole/liter Tris-HCl (pH 8.0), optimum test conditions, mutant 109 = Val. From the text: (optimum test conditions)

B1: Pseudomonas putida creatine amidinohydrolase, wild type, from Escherichia coli DSM 3143 (pBT 2a-1, DSM 3148P) (Pseudomonas putida) (protein)
chain: MQMPKTLRIRNGDKVRSTFSAQEYANRQARLRAHLAAENIDAAIFTSYHNINYYSDFLYCSFGRPYALVVTEDDVISISANIDGGQPWRRTVGTDNIVYTDWQRDNYFAAIQQALPKARRIGIEHDHLNLQNRDKLAARYPDAELVDVAAACMRMRMIKSAEEHVMIRHGARIADIGGAAVVEALGDQVPEYEVALHATQAMVRAIADTFEDVELMDTWTWFQSGINTDGAHNPVTTRKVNKGDILSLNCFPMIAGYYTALERTLFLDHCSDDHLRLWQVNVEVHEAGLKLIKPGARCSDIARELNEIFLKHDVLQYRTFGYGHSFGTLSHYYGREAGLELREDIDTVLEPGMVVSMEPMIMLPEGLPGAGGYREHDILIVNENGAENITKFPYGPEKNIIRK
With B1, in data set [1], the Km is 25 mM.

B2: Pseudomonas putida creatine amidinohydrolase mutant (Ala109Val and Val355Met), from Escherichia coli DSM 4106 (pBT 119, DSM 4107P) (Pseudomonas putida; … (protein)
chain: MQMPKTLRIRNGDKVRSTFSAQEYANRQARLRAHLAAENIDAAIFTSYHNINYYSDFLYCSFGRPYALVVTEDDVISISANIDGGQPWRRTVGTDNIVYTDWQRDNYFVAIQQALPKARRIGIEHDHLNLQNRDKLAARYPDAELVDVAAACMRMRMIKSAEEHVMIRHGARIADIGGAAVVEALGDQVPEYEVALHATQAMVRAIADTFEDVELMDTWTWFQSGINTDGAHNPVTTRKVNKGDILSLNCFPMIAGYYTALERTLFLDHCSDDHLRLWQVNVEVHEAGLKLIKPGARCSDIARELNEIFLKHDVLQYRTFGYGHSFGTLSHYYGREAGLELREDIDTVLEPGMVMSMEPMIMLPEGLPGAGGYREHDILIVNENGAENITKFPYGPEKNIIRK
notes: made in house; host or cells: Escherichia coli DSM 4106 (plasmid pBT 119, DSM 4107P)
In the case of B2, the Km in data set [2] (355 = Met) amounted to 16 mM.

B3: Pseudomonas putida creatine amidinohydrolase mutant (amino acid 109 = Val; Ala109Val), from Escherichia coli DSM 4105 (pBT 109, DSM 4108P) (Pseudomonas putida; … (protein)
chain: MQMPKTLRIRNGDKVRSTFSAQEYANRQARLRAHLAAENIDAAIFTSYHNINYYSDFLYCSFGRPYALVVTEDDVISISANIDGGQPWRRTVGTDNIVYTDWQRDNYFVAIQQALPKARRIGIEHDHLNLQNRDKLAARYPDAELVDVAAACMRMRMIKSAEEHVMIRHGARIADIGGAAVVEALGDQVPEYEVALHATQAMVRAIADTFEDVELMDTWTWFQSGINTDGAHNPVTTRKVNKGDILSLNCFPMIAGYYTALERTLFLDHCSDDHLRLWQVNVEVHEAGLKLIKPGARCSDIARELNEIFLKHDVLQYRTFGYGHSFGTLSHYYGREAGLELREDIDTVLEPGMVVSMEPMIMLPEGLPGAGGYREHDILIVNENGAENITKFPYGPEKNIIRK
notes: made in house; host or cells: Escherichia coli DSM 4105 (plasmid pBT 109, DSM 4108P)
B3: the Km in data set [2] came to 20 mM.
